Results on 1 molecule are retold here after patent US20250206837A1 (ELIXIRON IMMUNOTHERAPEUTICS HONG KONG, published 2025).

Assay [1] deals with full-length human CD36-Flag overexpressed on stable F293 cells (human, UniProt P16671 2-472). Nature of the assay: cell-based or functional assay.
Assay [2] concerns the target mouse CD36-His overexpressed on stable F293 cells (mouse, UniProt Q08857 1-472). Nature of the assay: cell-based or functional assay.
Assay [3] addresses T1, Recombinant His-tagged human CD36.ECD protein (Sino Biological) (human, UniProt P16671 30-439).
T1 construct: Bought protein; also called hCD36.ECD; hCD36; not shown: His tag
Nature of the assay: ELISA, coated human CD36.ECD (FIG. 1C). The procedure: (§1) ELISA materials and methods: Recombinant His-tagged human CD36.ECD protein or His-tagged mouse CD36.ECD protein (both from Sino Biological) was immobilized on 96 well microtiter plate at a concentration of 1 μg/mL in Coating Solution (SeraCare) overnight at 4° C. The wells were washed with wash solution (0.05% Tween20 in PBS) and blocked with 1% BSA in PBS. Serial dilutions of anti-CD36 antibodies were added to wells. After incubation at 37° C. for 1 h, the wells were washed with wash solution. Peroxidase-conjugated Goat anti-human kappa Light chain antibody (Sigma) was applied to each well at 37° C. for 1 h incubation. After washing, the wells were developed with TMB substrate for 5-10 min at room temperature and then stopped with 1 N HCl. Thereafter absorbance was measured at 450 nm and 650 nm. EC50 values were calculated through GraphPad Prism7.
(§2) ELISA data plots showing binding of anti-CD36 antibodies to recombinant human CD36.ECD or mouse CD36.ECD coated on ELISA plates are depicted in FIG. 1C and 1D, respectively.

The target of assay [4] is T2, Recombinant His-tagged mouse CD36.ECD protein (Sino Biological) (mouse, UniProt Q08857 30-439).
T2 construct: Bought protein; also called mCD36.ECD; mCD36; not shown: His tag
T2 sequence (Q08857 30-439 limits assumed): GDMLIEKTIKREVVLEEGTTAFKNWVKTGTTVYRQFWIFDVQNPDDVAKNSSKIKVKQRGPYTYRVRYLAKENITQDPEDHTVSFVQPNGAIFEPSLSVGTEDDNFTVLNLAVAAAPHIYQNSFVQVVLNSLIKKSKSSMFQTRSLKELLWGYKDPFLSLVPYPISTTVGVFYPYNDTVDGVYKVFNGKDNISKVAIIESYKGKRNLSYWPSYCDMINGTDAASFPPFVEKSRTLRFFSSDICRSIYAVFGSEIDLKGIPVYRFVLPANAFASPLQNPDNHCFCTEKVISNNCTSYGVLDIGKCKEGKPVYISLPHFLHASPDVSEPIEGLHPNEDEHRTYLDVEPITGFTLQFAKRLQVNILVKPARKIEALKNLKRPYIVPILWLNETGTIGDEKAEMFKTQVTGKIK
Nature of the assay: ELISA, coated mouse CD36.ECD (FIG. 1D). The procedure: as §1, §2
For orientation: An ELISA detects its analyte on a solid surface through an enzyme-linked reagent.

Assay [5] addresses T1, Recombinant His-tagged human CD36.ECD …. Nature of the assay: ELISA, coated human CD36.ECD (FIG. 2A). The procedure:
as §1
The competitor anti-CD36 antibody ONA, which is derived from clone “ONA-0-v1” as disclosed in WO2021176424A1 in hIgG4-S228P-FALA format.

The target is the same in assay [6]. Nature of the assay: ELISA, coated His-tagged human CD36.ECD. As to the method: as §1
(§3) Results: ELISA data plots showing binding to either human CD36.ECD or mouse CD36.ECD are depicted in FIG. 1A and FIG. 1B, respectively, for the full-length IgG anti-CD36 antibody 12P109, and additional positive clones, 12P102, 12P103, 12P104, 12P105, 12P106, 12P107, 12P110 and 12P212.

For assay [7], the target named is T2, Recombinant His-tagged mouse CD36.ECD …. Nature of the assay: ELISA, coated His-tagged mouse CD36.ECD. As to the method:
as §1, §3

The target of assay [8] is T1, Recombinant His-tagged human CD36.ECD …. Nature of the assay: BLI (Octet), antibody on AHC sensor, His-tagged hCD36.ECD in solution, 1:1 fit. As to the method: BLI assay materials and method: Kinetic rate constants, ka and kd, for binding of the anti-CD36 antibodies to human CD36 were measured by Bio-Layer Interferometry (BLI) (ForteBio Octet RED96). […] Rate constants were calculated by curve fitting analyses (1:1 Langmuir model) of binding response with a 2.5-minute association and 5-minute dissociation interaction time.
On the technique in general: BLI is a label-free optical method that tracks binding on a fibre tip over time.

T1 sequence (P16671 30-439 limits assumed): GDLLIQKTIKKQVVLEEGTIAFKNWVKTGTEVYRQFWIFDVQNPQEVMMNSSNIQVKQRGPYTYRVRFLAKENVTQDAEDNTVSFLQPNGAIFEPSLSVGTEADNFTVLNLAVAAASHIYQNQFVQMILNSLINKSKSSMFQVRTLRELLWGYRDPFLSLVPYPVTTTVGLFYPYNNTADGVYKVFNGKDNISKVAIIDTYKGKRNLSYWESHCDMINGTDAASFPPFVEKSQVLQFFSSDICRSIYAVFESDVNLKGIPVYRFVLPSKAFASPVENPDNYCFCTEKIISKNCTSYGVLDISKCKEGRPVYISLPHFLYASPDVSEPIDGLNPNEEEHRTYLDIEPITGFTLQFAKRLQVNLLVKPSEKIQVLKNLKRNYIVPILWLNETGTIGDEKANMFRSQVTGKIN
mouse CD36-His overexpressed on stable F293 cells, sequence (Q08857 whole entry, the tested form may be a part): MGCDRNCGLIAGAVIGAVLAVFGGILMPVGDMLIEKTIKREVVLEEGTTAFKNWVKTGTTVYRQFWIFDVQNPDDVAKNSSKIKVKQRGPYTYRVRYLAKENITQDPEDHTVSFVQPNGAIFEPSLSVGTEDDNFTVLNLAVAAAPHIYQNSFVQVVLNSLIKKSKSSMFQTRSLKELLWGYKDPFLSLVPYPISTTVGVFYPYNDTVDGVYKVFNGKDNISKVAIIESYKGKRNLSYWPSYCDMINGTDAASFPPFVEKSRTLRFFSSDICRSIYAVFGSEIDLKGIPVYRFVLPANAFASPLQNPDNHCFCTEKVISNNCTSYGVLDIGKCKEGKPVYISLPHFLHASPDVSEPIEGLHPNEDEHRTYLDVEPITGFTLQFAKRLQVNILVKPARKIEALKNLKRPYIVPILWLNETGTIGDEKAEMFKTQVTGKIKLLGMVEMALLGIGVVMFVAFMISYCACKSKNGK
full-length human CD36-Flag overexpressed on stable F293 cells, sequence (P16671 2-472): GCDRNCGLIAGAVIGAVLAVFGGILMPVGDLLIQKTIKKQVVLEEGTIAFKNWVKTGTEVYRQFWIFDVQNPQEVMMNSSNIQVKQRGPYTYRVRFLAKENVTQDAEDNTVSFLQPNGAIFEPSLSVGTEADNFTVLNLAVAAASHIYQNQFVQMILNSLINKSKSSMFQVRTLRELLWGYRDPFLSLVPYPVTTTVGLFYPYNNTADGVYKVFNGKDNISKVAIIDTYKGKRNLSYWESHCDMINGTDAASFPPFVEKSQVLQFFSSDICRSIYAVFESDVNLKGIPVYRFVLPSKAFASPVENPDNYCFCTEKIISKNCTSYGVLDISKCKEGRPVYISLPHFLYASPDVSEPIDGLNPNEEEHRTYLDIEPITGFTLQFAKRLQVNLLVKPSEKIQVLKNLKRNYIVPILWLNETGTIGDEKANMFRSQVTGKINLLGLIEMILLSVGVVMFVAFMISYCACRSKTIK

B1: 12P109 (antibody, human IgG1, kappa, N297A, V domains shown)
VH: EVQLVESGGGLVQPGGSLRLSCAASGFTISSFGIHWVRQAPGKGLEWVAWIAPYGGYTYYADSVKGRFTISADTSKNTAYLQMNSLRAEDTAVYYCARSFFGYFDYWGQGTLVTVSS
VL: DIQMTQSPSSLSASVGDRVTITCRASQDVSNWVAWYQQKPGKAPKLLISTSTSLYSGVPSRFSGSGSGTDFTLTISSLQPEDFATYYCQQYYTLPFTFGQGTKVEIKR
notes: Full-length human IgG1-N297A, kappa; also called 12P109 (IgG1)
For the molecule B1, in assay [1], the “oxLDL uptake IC50 (nM), F293/hCD36” value amounted to 0.401 nM. Moreover, in assay [2], the “oxLDL uptake IC50 (nM), F293/mCD36” value stood at 0.86 nM. Further, the EC50 (commonly the concentration giving half of the maximal effect) stood at 43.2 nM in assay [3]; 9.45 nM in assay [4]; 1.53 nM in assay [5]; 0.213 nM in assay [6]; 0.137 nM in assay [7]. In assay [8], the equilibrium dissociation constant (Kd) (in general, the constant that tells how readily two partners part at equilibrium) is 18.5 nM. Besides, in assay [8], the off-rate constant (koff) (as a rule, a measure of how fast the partners let go of each other) was found to be 0.00963 s⁻¹. Besides, the kon (as a rule, a measure of how fast the partners come together) in assay [8] was 522000 M⁻¹ s⁻¹.
